Data taken from paper PMC3462190, “A Peptidic Unconjugated GRP78/BiP Ligand Modulates the Unfolded Protein Response and Induces Prostate Cancer Cell Death” (PLoS ONE, 2012).

Legend:
[1] = tested on: unfolded protein response in 22Rv.1 cells; assay: UPR modulation, Western blot / PCR in 22Rv.1 cells; format: cell-based
Protocol: (§1) Unless otherwise stated, stable transfection was carried out in 22Rv.1 or BPH-1 cells with 10 µg of plasmid DNA using FuGene 6™ (Roche Diagnostics Mannheim, Germany) Stably transfected 22Rv.1 cells were selected with 0.8 mg/ml while BPH-1 cell clones were selected with 1.2 mg/ml G418. LNCaP, PC3, DU145, PNT-2 and RWPE-1 cell clones were selected with 1 mg/ml G418. Specific downregulation of GRP78 expression was achieved by transfecting siRNA-duplexes (GRP78∶5′-[…]-3′) twice in 72 h using HiPerfect™ (Qiagen Hilden, Germany). siRNA against GFP (5′-[…]-3′) was used as a control. Western blot analysis was performed as previously described.
(§2) Figure 3 The Bag-1 peptide modulates the UPR and sensitizes 22Rv.1 cells to ER-stress. A. UPR modulation upon Bag-1 peptide overexpression. Pooled clones of 22Rv.1 cells transfected with pcDNA3.1-HA-Bag-1 68 amino acid peptide or an empty expression vector were treated with 300 nM thapsigargin (TG) for the indicated time points. Cells were lysed and subjected to Western blot analysis using the indicated antibodies or phospho-specific antibodies. B. The Bag-1 peptide sensitizes 22Rv.1 cells to ER-stress induced apoptosis. Pooled clones of 22Rv.1 transfected with the Bag-1 peptide or the empty expression vector were treated with thapsigargin (TG) or glucose-starved (GS) for 24 h. The cells were lysed and subjected to Western blot analysis using anti-PARP and caspase 4 specific antibodies. Anti-HA antibody was used to detect the HA-Bag-1 peptide. […] C. […] Pooled clones of 22Rv.1 expressing HA-tagged Bag-1 peptide or an empty expression vector were transfected with GRP78/BiP siRNA or control GFP siRNA. The cells were lysed and Western blot was carried out with anti-PARP, anti-GRP78 and anti-HA antibodies. β-actin antibody was used to determine the level of protein loaded on the gel.
A. Real time PCR analysis of ATF6 gene expression following thapsigargin (300 nM) treatment for the indicated time points in 22Rv.1 cell clones with empty vector control (open bars) and peptide-expressing clones (filled bars). The RNA was extracted using PeqGold RNA pure (PeqLab, Germany) kit according to manufacturer’s instructions. For gene expression analysis, the following primers were used: Rib36 forward 5′-[…]-3′; reverse 5′-CCGGATATGAGGCAGCAG-3′; ATF6 forward 5′-[…]-3′; reverse 5′-[…]-3′. Each bar represents the mean of three independent experiments ± SEM. *p<0.05. B. Western blot analysis of ATF6 and its cleaved product (cATF6) in LNCaP cells stably expressing the empty vector control or the Bag-1 peptide. Anti-ATF6 specific antibody and an anti-HA specific antibody were used for the Western blot. β-actin antibody was used to determine equal loading control. Mouse monoclonal anti-ATF6 antibody was purchased from Imgenex (Hamburg, Germany), mouse monoclonal anti-HA antibody (HA.11 clone 16B12) was purchased from Covance (Munich, Germany) and anti-β-actin antibody was purchased from Abcam (Cambridge, UK). (TIF) Click here for additional data file.
Supplementary file pone.0045690.s004.tif: Figure S4 The Bag-1 peptide induces GCN2 phosphorylation. 22Rv.1 cells stably expressing the empty vector control or the Bag-1 peptide were treated with thapsigargin (300 nM) for 16 h and subjected to Western blot analysis using anti-phospho-GCN2, GCN2 and HA-specific antibodies. The filters used in this experiment for the GCN2 signals are the same filters used in Figure 3A. The HA-Bag-1 peptide and the β-actin signals are therefore identical to that of Figure 3A. (TIF) Click here for additional data file.

22Rv.1 cells = assay: ER-stress induced apoptosis markers, Western blot in 22Rv.1 cells; format: cell-based
Protocol: as §1, §2
Supplementary file pone.0045690.s005.tif: Figure S5 Knock-down of CHOP impairs the Bag-1 peptide-mediated increase in apoptosis. The action of the Bag-1 peptide is dependent on CHOP. Pooled clones of 22Rv.1 expressing an empty expression vector (lane 1 to 4) or an HA-tagged Bag-1 peptide (lane 5 to 8) were transfected with control GFP siRNA (lane 1–2 and 5–6) or CHOP siRNA (lane 3–4 and 7–8). After treatment with 300 nM thapsigargin (TG) for 24 h, cells were lysed and Western blot was carried out with anti-PARP, anti-CHOP and anti-HA antibodies. β-actin antibody was used to determine the level of protein loaded on the gel. (TIF) Click here for additional data file.
Supplementary file pone.0045690.s006.tif: Figure S6 Overexpression of the Bag-1 peptide increases Capase-7 cleavage and JNK expression. 22Rv.1 cells stably transfected with an empty vector control (lane 1–2) or a plasmid encoding an HA-tagged Bag-1 peptide (lane 3–4) were treated with 300 nM thapsigargin (TG) for 24 h and harvested for Western blot anaysis. Specific antibodies against JNK (Cell Signaling, Frankfurt am Main, Germany), cleaved Caspase-7 (Cell Signaling, Frankfurt am Main, Germany), HA (HAA.11 clone 16B12, Covance, Munich, Germany) or β-actin (Sigma, Steinheim, Germany) were used in the experiment. (TIF) Click here for additional data file.

[2] = Bag-1 peptide expressing 22Rv.1 cells, thapsigargin 300 nM, 16 h
[3] = stable Bag-1 peptide expression, 22Rv.1, thapsigargin 300 nM
[4] = stable Bag-1 peptide expression, 22Rv.1, thapsigargin 300 nM, vs vector control

B1: Bag-1 peptide: internal sequence of 68 amino acids of Bag-1 (Bag1-L 202–269), HA-tagged, expressed from pcDNA3 (peptide)
chain: TPLSALGIQDGCRVMLIGKKNSPQEEVELKKLKHLEKSVEKIADQLEELNKELTGIQQGFLPKDLQAE
modifications: also: HA tag, end not given here
CHOP expression ([1]; Bag-1 peptide expressing 22Rv.1 cells, thapsigargin 300 nM): increased expression of the pro-apoptotic factor CHOP
GCN2 [1, 2]: upregulated in the peptide expressing cells
GCN2 phosphorylation [1, 2]: enhanced phosphorylation of GCN2
ATF4 activation [1, 3]: activation of the downstream target ATF4
eIF2α phosphorylation [1, 3]: increase in eIF2α phosphorylation
thapsigargin-induced expression of GRP78/BiP [1, 3]: inhibition of the thapsigargin-induced expression of GRP78/BiP
cleaved ATF6 [1, 4]: significant reduction of cleaved ATF6
phosphorylation of PERK and IRE1 [1, 4]: reduced ER stress-induced phosphorylation of PERK and IRE1
PARP cleavage, GFP siRNA control, no ER stress (22Rv.1 cells; 22Rv.1 cells expressing Bag-1 peptide vs vector, no ER stress): increase in the PARP cleavage even in the absence of ER stress
PARP cleavage, GRP78/BiP knock-down (22Rv.1 cells; 22Rv.1 cells transfected with GRP78/BiP siRNA, Bag-1 peptide vs vector): no difference in the cleavage pattern was further observed
caspase 4 and PARP cleavage, no ER stress (22Rv.1 cells; 22Rv.1 cells, no stressor, vs vector control): both caspase 4 and PARP cleavage was increased
CHOP expression and PARP cleavage (22Rv.1 cells; 22Rv.1 cells, thapsigargin 300 nM 24 h, Bag-1 peptide vs vector control): further enhanced in the cells expressing the Bag-1 peptide
JNK expression and caspase 7 cleavage (22Rv.1 cells; 22Rv.1 cells, thapsigargin 300 nM 24 h, vs vector control): enhanced expression of JNK and caspase 7 cleavage
PARP cleavage after CHOP siRNA knockdown (22Rv.1 cells; 22Rv.1 cells, thapsigargin 300 nM 24 h, both vector and peptide cell lines): PARP cleavage was reduced in both cells line
caspase 4 expression and PARP cleavage, with ER stress (22Rv.1 cells; 22Rv.1 cells, thapsigargin or glucose starvation 24 h, vs vector control): a tremendous increase in caspase 4 expression and PARP cleavage
